Where two headings read alike, the source gives them in different places.

The target in test [1] is T1, Activin B (human, UniProt P09529).
T1 chain: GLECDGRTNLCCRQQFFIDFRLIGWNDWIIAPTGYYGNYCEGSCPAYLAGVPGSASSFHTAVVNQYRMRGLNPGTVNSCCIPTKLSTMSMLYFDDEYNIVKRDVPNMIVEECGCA
Kind of test: SPR. A general note: Surface plasmon resonance follows binding to a sensor surface in real time, without labels.

Test [2] deals with T2, GDF11 (human, UniProt O95390).
T2 chain: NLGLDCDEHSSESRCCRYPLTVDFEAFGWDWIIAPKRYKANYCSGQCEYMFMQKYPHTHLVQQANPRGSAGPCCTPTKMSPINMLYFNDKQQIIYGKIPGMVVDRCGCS
Kind of test: SPR.

Test [3] deals with T3, Activin A (human, UniProt P08476).
T3 chain: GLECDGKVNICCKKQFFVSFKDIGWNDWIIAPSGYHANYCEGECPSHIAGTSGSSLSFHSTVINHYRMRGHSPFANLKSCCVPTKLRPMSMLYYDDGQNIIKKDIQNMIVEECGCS
Kind of test: SPR.

Test [4] has as its target T3, Activin A. In words: SPR.
A further test has as its target T4, BMP6 (human, UniProt P22004).
T4 chain: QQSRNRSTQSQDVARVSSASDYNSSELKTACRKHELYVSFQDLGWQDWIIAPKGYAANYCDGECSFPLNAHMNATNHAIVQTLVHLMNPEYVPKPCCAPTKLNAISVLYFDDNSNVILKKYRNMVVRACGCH
Kind of test: SPR.

In a further test the target is T5, BMP10 (human, UniProt O95393).
T5 chain: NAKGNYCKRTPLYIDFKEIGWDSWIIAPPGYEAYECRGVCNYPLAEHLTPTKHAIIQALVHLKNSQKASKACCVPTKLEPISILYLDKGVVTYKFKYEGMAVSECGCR
In words: SPR.

Another test concerns the target T6, GDF3 (human, UniProt Q9NR23).
T6 chain: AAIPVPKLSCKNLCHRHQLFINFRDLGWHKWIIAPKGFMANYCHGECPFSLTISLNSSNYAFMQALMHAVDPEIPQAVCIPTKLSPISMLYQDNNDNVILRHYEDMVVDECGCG
Kind of test: SPR.

Test [5] deals with T7, GDF8 (human, UniProt O14793). In words: SPR.
T7 sequence (O14793 267-375): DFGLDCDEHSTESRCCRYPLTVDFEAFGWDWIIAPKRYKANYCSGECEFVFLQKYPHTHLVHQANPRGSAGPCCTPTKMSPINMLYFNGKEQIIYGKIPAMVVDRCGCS
For test [6], the target named is T2, GDF11. Kind of test: SPR.
Test [7] has as its target T3, Activin A. Kind of test: SPR.
Test [8] deals with T1, Activin B. In words: SPR.
The next test has as its target T8, BMP9 (human, UniProt Q9UK05).
T8 chain: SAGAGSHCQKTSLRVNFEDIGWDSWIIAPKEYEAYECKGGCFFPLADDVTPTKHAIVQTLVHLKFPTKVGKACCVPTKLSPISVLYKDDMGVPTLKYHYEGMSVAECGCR
Kind of test: SPR, transient.

Test [9] addresses T2, GDF11. In words: SPR.
Test [10] has as its target T2, GDF11. In words: SPR, very low signal.
Test [11] concerns the target T7, GDF8. Kind of test: SPR. The source holds these as a separate data set.
The target of test [12] is T3, Activin A. In words: SPR.

B1: ActRIIB(L79D 20-134)-hFc (protein)
chain: GRGEAETRECIYYNANWELERTNQSGLERCEGEQDKRLHCYASWRNSSGTIELVKKGCWDDDFNCYDRQECVATEENPQVYFCCCEGNFCNERFTHLPEAGGPEVTYEPPPTAPTGGGTHTCPPCPAPELLGGPSVFLFPPKPKDTLMISRTPEVTCVVVDVSHEDPEVKFNWYVDGVEVHNAKTKPREEQYNSTYRVVSVLTVLHQDWLNGKEYKCKVSNKALPVPIEKTISKAKGQPREPQVYTLPPSREEMTKNQVSLTCLVKGFYPSDIAVEWESNGQPENNYKTTPPVLDSDGSFFLYSKLTVDKSRWQQGNVFSCSVMHEALHNHYTQKSLSLSPGK
B1: the Kd was 0.788 nM in the test with Activin B [1], 0.123 nM with GDF11 [2] and 13.5 nM with Activin A [3].

B2: ActRIIB-Fc +15tail (protein)
chain: GRGEAETRECIYYNANWELERTNQSGLERCEGEQDKRLHCYASWRNSSGTIELVKKGCWLDDFNCYDRQECVATEENPQVYFCCCEGNFCNERFTHLPEAGGPEVTYEPPPTAPTGGGTHTCPPCPAPELLGGPSVFLFPPKPKDTLMISRTPEVTCVVVDVSHEDPEVKFNWYVDGVEVHNAKTKPREEQYNSTYRVVSVLTVLHQDWLNGKEYKCKVSNKALPVPIEKTISKAKGQPREPQVYTLPPSREEMTKNQVSLTCLVKGFYPSDIAVEWESNGQPENNYKTTPPVLDSDGSFFLYSKLTVDKSRWQQGNVFSCSVMHEALHNHYTQKSLSLSPGK
In the case of B2, in the test with Activin A [4], the Kd is approximately 26 nM.

B3: ALK4-Fc:ActRIIB-Fc heterodimer (protein)
chain 1: SGPRGVQALLCACTSCLQANYTCETDGACMVSIFNLDGMEHHVRTCIPKVELVPAGKPFYCLSSEDLRNTHCCYTDYCNRIDLRVPSGHLKEPEHPSMWGPVETGGGTHTCPPCPAPELLGGPSVFLFPPKPKDTLMISRTPEVTCVVVDVSHEDPEVKFNWYVDGVEVHNAKTKPREEQYNSTYRVVSVLTVLHQDWLNGKEYKCKVSNKALPAPIEKTISKAKGQPREPQVYTLPPSREEMTKNQVSLTCLVKGFYPSDIAVEWESNGQPENNYDTTPPVLDSDGSFFLYSDLTVDKSRWQQGNVFSCSVMHEALHNHYTQKSLSLSPG
chain 2: GRGEAETRECIYYNANWELERTNQSGLERCEGEQDKRLHCYASWRNSSGTIELVKKGCWLDDFNCYDRQECVATEENPQVYFCCCEGNFCNERFTHLPEAGGPEVTYEPPPTAPTGGGTHTCPPCPAPELLGGPSVFLFPPKPKDTLMISRTPEVTCVVVDVSHEDPEVKFNWYVDGVEVHNAKTKPREEQYNSTYRVVSVLTVLHQDWLNGKEYKCKVSNKALPAPIEKTISKAKGQPREPQVYTLPPSRKEMTKNQVSLTCLVKGFYPSDIAVEWESNGQPENNYKTTPPVLKSDGSFFLYSKLTVDKSRWQQGNVFSCSVMHEALHNHYTQKSLSLSPGK
As for B3, the Kd came to 2.7 nM with BMP6; 0.074 nM with BMP10; 4.9 nM in the test with GDF3; 0.55 nM with GDF8 [5]; 0.003 nM with GDF11 [6]; 0.012 nM with Activin A [7]. The Kd with Activin B [8] turned out to be 0.006 nM; in the test with BMP9, 3.4 nM.

B4: ActRIIB-Fc K55A (protein)
chain: GRGEAETRECIYYNANWELERTNQSGLERCEGEQDKRLHCYASWRNSSGTIELVAKGCWLDDFNCYDRQECVATEENPQVYFCCCEGNFCNERFTHLPEAGGPEVTYEPPPTAPTGGGTHTCPPCPAPELLGGPSVFLFPPKPKDTLMISRTPEVTCVVVDVSHEDPEVKFNWYVDGVEVHNAKTKPREEQYNSTYRVVSVLTVLHQDWLNGKEYKCKVSNKALPVPIEKTISKAKGQPREPQVYTLPPSREEMTKNQVSLTCLVKGFYPSDIAVEWESNGQPENNYKTTPPVLDSDGSFFLYSKLTVDKSRWQQGNVFSCSVMHEALHNHYTQKSLSLSPGK
On to B4, for which the binding result in the test with GDF11 [9] was “no binding”.

B5: ActRIIB(20-134)-hFc (protein)
chain: GRGEAETRECIYYNANWELERTNQSGLERCEGEQDKRLHCYASWRNSSGTIELVKKGCWLDDFNCYDRQECVATEENPQVYFCCCEGNFCNERFTHLPEAGGPEVTYEPPPTAPTGGGTHTCPPCPAPELLGGPSVFLFPPKPKDTLMISRTPEVTCVVVDVSHEDPEVKFNWYVDGVEVHNAKTKPREEQYNSTYRVVSVLTVLHQDWLNGKEYKCKVSNKALPVPIEKTISKAKGQPREPQVYTLPPSREEMTKNQVSLTCLVKGFYPSDIAVEWESNGQPENNYKTTPPVLDSDGSFFLYSKLTVDKSRWQQGNVFSCSVMHEALHNHYTQKSLSLSPGK
As to B5, the Kd with Activin B [1] is 0.012 nM; in the test with GDF11 [2], 0.036 nM; with Activin A [3], 0.016 nM.

B6: ALK4-Fc homodimer (protein)
chain: SGPRGVQALLCACTSCLQANYTCETDGACMVSIFNLDGMEHHVRTCIPKVELVPAGKPFYCLSSEDLRNTHCCYTDYCNRIDLRVPSGHLKEPEHPSMWGPVE
Molecule B6 returned a Kd with GDF11 [10] of 0.27 nM. That is a sub-nanomolar value.

B7: ActRIIB(R64K 20-129)-hFc (protein)
chain: GRGEAETRECIYYNANWELERTNQSGLERCEGEQDKRLHCYASWKNSSGTIELVKKGCWLDDFNCYDRQECVATEENPQVYFCCCEGNFCNERFTHLPEAGGPEVTYEPP
As for B7, the Kd with GDF8 [11] amounted to 2.15 nM; with Activin A [12] it was 0.0841 nM.

Broadly, the Kd is the concentration at which binding is half-saturated. Higher therefore signals weaker binding.

The values are drawn from patent publication US10722558 (dated 2020).
